In patent publication US20110201105A1, “LACTATION-ASSOCIATED POLYPEPTIDES” (Dairy Australia Limited, priority 2007, published 2011):

Tests used:
AGS cells = test: Cell growth using bovine cathelicidin variants in AGS cells (SRB assay); type: cell-based, human; set-up: unit not given here; details: 72 hours; for cell growth Replicate 3: -ve control 0.233; for cell growth Replicate 1: -ve control 0.247; for cell growth Replicate 4: -ve control 0.265; for cell growth Replicate 2: -ve control 0.316; for cell growth Mean: -ve control mean 0.265
Description: A cellular growth assay was performed using seven bovine cathelicidin (CATHL) variants, namely CATHL1, 4, and 6 which are known in the art (the relevant sequences can be obtained using the following hyperlink: http://www.ncbi.nlm.nih.gov/entrez/query.fcqi?db=unigene&cmd=search&term=cathelicidin) and bovine Cathelicidins 8, 9, 10 and 11 (being LAMs 32.8, 32.9, 32.10 and 32.11, respectively) as identified herein and which are derived from LAM 32. The bovine cathelicidin associated LAMs were derived by sequence comparison to the tammar polynucleotide sequence of LAM 32.
The growth rate of AGS cells was assessed in the presence of the cathelicidins. Equal numbers of human gastric epithelial AGS cells were cultured in either control media or media conditioned with bovine cathelicidins for 72 hours in a 1:10 dilution of serum and antibiotic-free Optimem. Cells were then fixed and a Sulforhodamine B (SRB) colorimetric assay was undertaken as described in Journal of Immunological Methods 208: 151-158, K. T. Papazisis, G. D. Geromichalos, K. A. Dimitriadis, A. H. Kortsaris (1997), ‘Optimization of the sulforhodamine B colorimetric assay’.
Briefly, cells were fixed directly by incubation with 10% trichloroacetic acid for 1 hour at 4° C., washed with water, air-dried overnight and then stained with 0.4% w/v sulforhodamine B, 1% acetic acid solution for 10 minutes at room temperature. Cell were again washed with 1% acetic acid and air-dried, then counted in triplicate.

chicks = test: Chick growth assay (in ovo injection, weight at hatching); type: in vivo; details: for Chick weight: bovine polypeptides in conditioned media, 1 ml in ovo on day 16 of incubation, weighed on day of hatching, Saline 51.0; for death / overall condition of chick: in ovo injection on day 16 of incubation
Description: FIG. 5. Chick growth assay by measuring weight. 10 LAMs (being bovine homologues having homology to specific Tammar ESTs), 3 known bovine cathelicidins, and four bovine cathelicidin variants were tested. Conditioned media containing a LAM polypeptides or bovine cathelicidins or variants thereof was diluted in a total of 1 ml of normal saline. Eggs on day 16 of incubation were injected with 1 ml of the media containing the into the broad end of the egg. Chicks were weighed on day of hatching. The overall condition of the chick was assessed including the possible presence of stumpy legs and/or loss of down feathers.
Conditioned media containing LAM polypeptides or bovine cathelicidins or variants thereof were diluted in a total of 1 ml of normal saline. Eggs on day 16 of incubation were injected in ovo with 1 ml of LAM polypeptides or bovine cathelicidins or variants thereof into the broad end of the egg. Chicks were weighed on day of hatching. Controls included saline only, or saline and 10 mg/ml of a peptide as a random peptide control.
As set out in Table 23, the left column indicates the polypeptide used in the assay while the right column contains chick weight in grams as a measurement of chick growth. Bolded numbers represent a chick(s) larger than the controls and more than 2 standard deviations from the mean. In addition, bolded numbers represent chicks that have been killed. The mean represents the weight of all the chicks tested within this experiment.

HC11 cells = test: Cell growth with cathelicidins in HC11 cells; type: cell-based, mouse; set-up: cell growth Rep. 1 / cell growth Rep. 2 / cell growth Rep. 3 / cell growth Rep. 4 / cell growth Mean: unit not given here; details: 72 hours; for cell growth Rep. 1: 1:10 dilution conditioned media, -ve control 0.727; for cell growth Rep. 2: -ve control 0.76; for cell growth Rep. 3: -ve control 0.786; for cell growth Rep. 4: -ve control 0.808; for cell growth Mean: -ve control mean 0.77025; for cell growth versus control (significance): P<0.05 t-test
Description: FIG. 2. Cellular growth assay with HC11 cells. Mouse mammary epithelial cells, HC11 cells, were grown in media conditioned with: mock transfection (control), LAM32, LAM32a or LAM32b for 72 hours. Samples were performed in triplicate and the cells from each triplicate counted in triplicate. […] LAM 32 is represented as set forth in SEQ ID NO: 188, and two splice variants thereof, designated LAM32a and 32b as set forth in SEQ ID NO: 215 and 207 respectively.
As shown in FIG. 2 equal numbers of mouse mammary HC11 cells were grown in the presence of either a negative control or tammar wallaby cathelicidin-associated polypeptide, namely LAM 32 (SEQ ID NO: 188), LAM 32a (SEQ ID NO: 215) or LAM 32b (SEQ ID NO: 207) in order to determine the effect of these LAMs on cellular growth.
(§1) HC11 cells were initially plated at 50 percent confluency and cultured for 72 hours in a 1:10 dilution of serum and antibiotic free Optimem and media conditioned with cathelicidin associated polypeptides. The medium was removed and then washed gently for 2 minutes with Mg^2+- and Ca^2+-free phosphate buffered saline (PBS), 0.05% Trypsin and 1:5000 Versene to disrupt cell aggregates. Cells were collected by scraping and washed twice by resuspension in complete medium followed by centrifugation. The cells were again resuspended and counted in triplicate using a Luber haemocytometer.
(§2) The cells were counted in triplicate using a Luber haemocytometer. The negative control was media alone (i.e. conditioned media […] insertless vector). The samples were deemed statistically significant using a t-test comparing the control with the sample if the values of cell growth were 2 standard deviations higher than the mean of the negative control.

mouse ES cells = test: Cell growth with cathelicidins in mouse ES cells; type: cell-based; set-up: cell growth Rep. 1 / cell growth Rep. 2 / cell growth Rep. 3 / cell growth Mean: unit not given here; details: 24 hours; for cell growth Rep. 1: 1:10 dilution conditioned media, -ve control 0.34; for cell growth Rep. 3: -ve control 0.352; for cell growth Rep. 2: -ve control 0.474; for cell growth Mean: -ve control mean 0.388666667
Description: as §1, with “Mouse ES” for “HC11”, “were” for “were initially”, “24” for “72”, “saline” for “saline (PBS),”
as §2

Row | Molecule | cell growth Replicate 3 (AGS cells) | cell growth Replicate 1 (AGS cells) | cell growth Replicate 4 (AGS cells) | cell growth Replicate 2 (AGS cells) | cell growth Mean (AGS cells) | Chick weight (chicks) | chick size versus controls (chicks; body weight relative to mean/median of all chicks tested) | death / overall condition of chick (chicks) | cell growth Rep. 1 (HC11 cells) | cell growth Rep. 2 (HC11 cells) | cell growth Rep. 3 (HC11 cells) | cell growth Rep. 4 (HC11 cells) | cell growth Mean (HC11 cells) | cell growth versus control (significance) (HC11 cells) | cell growth versus control (significance) (mouse ES cells) | cell growth Rep. 1 (mouse ES cells) | cell growth Rep. 3 (mouse ES cells) | cell growth Rep. 2 (mouse ES cells) | cell growth Mean (mouse ES cells)
1 | CATHL4: bovine cathelicidin 4, known in the art (ILPWKWPWWPWRR; UniProt P33046 131-143, looked up) [reference compound] | 0.409 | 0.626 | 0.500 | 0.465 | 0.500 | 49.7 grams |  |  |  |  |  |  |  |  |  |  |  |  | 
2 | LAM 32.10: bovine cathelicidin variant, SEQ ID NO 175 (protein) METQRASLSLGRWSLWLLLLGLVLPSASAQALSYREAMLRAVDQLNERSSEAHLYRLLELDPPPDMSWGGDRGRAFLLPALATLLPLHSGCTSCQEGTFPSRWVPTSSRKASQTWVISQHQASCLSISAVGIGTLHTWLKFPGLLGAPGMGGS | 0.534 | 0.602 | 0.514 | 0.405 | 0.514 | 53.8 grams |  |  |  |  |  |  |  |  |  |  |  |  | 
3 | LAM 32.11: bovine cathelicidin variant, SEQ ID NO 177 (protein) METQRASLSLGRWSLWLLLLGLVLPSASAQALSYREAMLRAVDQLNERSSEAHLYRLLGASTRPPSGHELGRGTGDEPFSCPALATLLPLHSGCTSCQEGTFPSRWVPTSSRKAVSRDLGHLPAPGYPCLSISAVGIGTLHTWLRFPGLLGSSRDGGVTGSVR | 0.563 | 0.365 | 0.431 | 0.366 | 0.431 | 59^ grams | produced a chick larger than the controls |  |  |  |  |  |  |  |  |  |  |  | 
4 | LAM 32.8: bovine cathelicidin variant, SEQ ID NO 171 (protein) METPRASLSLGRWSLWLLLLGLALPSAQRPGPQLQGGRASCLMESASMKKSSEANLYRLLELDPPPKEDDENPNIPKPVSFRVKETVCPRTSQQSPEQCDFKENGLLKYCVGTVSRWDQVGSNFDITCAAPQSVGGLQAWVGRYYVLGKSMAQLLFQ | 0.261 | 0.441 | 0.361 | 0.382 | 0.361 | Killed |  | caused death of chicks |  |  |  |  |  |  |  |  |  |  | 
5 | LAM 32b: splice variant of tammar wallaby LAM 32, SEQ ID NO 207 (protein) MRGLTMQVLLLVLGLLSLMTPLGYAQDQPYQDVLNRFIQEYNTKSESESLFRLSVLNLPSQESNDPTAPQLLKFTIRETVCSKSEHRNPEECDFKKNGVRVSWAGKGF |  |  |  |  |  |  |  |  | 0.89 | 0.841 | 0.862 | 0.832 | 0.8562 | significantly more cells | significantly different growth from the control | 0.676 | 0.693 | 0.677 | 0.682
6 | LAM 32.9: bovine cathelicidin variant, SEQ ID NO 173 (protein) METPRASLSLGRCSLWLLLLGLVLPSASAQALSYREAVLRAVDQFNERSSEANLYRLLELDPTPNDVSYEGIWAGRPASWGAGRQIRGRRMSPNPVSPTLTHDQDLDPGTRKPVSFRVKETDCPRTSQQPLEQCDFKENGVSLGAGEKNGRCFPGIGQRAWGRLPIPGRRPGGYGHRGFSLTLNLPFQLVKTVCGTARHQHN | 0.220 | 0.246 | 0.229 | 0.220 | 0.229 | 46.5 grams |  | caused stumpy legs and loss of down |  |  |  |  |  |  |  |  |  |  | 
7 | LAM 32a: splice variant of tammar wallaby LAM 32, SEQ ID NO 215 (protein) MRDSTMQVLLLVLGLLSLMTSLACAQDQPYQDVLNRFIQEYNTKSESESLFRLSVLNLPPEESNDPAVPLLKFTIRETVCPKTEHRNADECDFKKNGLVKQCIGTIDLDSPNPSVDISCDRPAKVKRGLWESLKRKATKLGDDIRNTLRNFKIKFPVPRQG |  |  |  |  |  |  |  |  | 0.958 | 0.977 | 1.008 | 1.102 | 1.011 | significantly more cells | significantly different growth from the control | 0.575 | 0.517 | 0.605 | 0.5657
